The values below come from patent publication US20210261677A1 (ORICELL THERAPEUTICS, published 2021).

The target of assay [1] is T1, recombinant human PD-L1-Fc protein (Origincell Therapeutics Co., Ltd.) (human, UniProt Q9NZQ7 19-238, limits assumed).
T1 construct: Labeled with biotin (EZ-Link Sulfo-NHS-LC-Biotin) for the BLI assays; unlabeled in the phage ELISA; also called Human PD-L1-Fc-Biotin; not shown: Fc part
Description: BLI (Octet RED384), biotinylated antigen on SA sensor, antibody in solution. Here is the method: (§1) The antigen-antibody binding kinetics were analyzed by a biofilm interference (BLI) technology, using a molecular interaction analyzer (Octet RED384, purchased from Pall ForteBio Analytics Co., Ltd.) and using a PBS buffer containing 0.1% BSA and 0.02% Tween 20. A biotin-coupled antigen protein with a concentration of 50 nM was fixed with the SA sensor (Pall ForteBio Analytics Co., Ltd.), and bound at 1500 rpm for 10 minutes; then it was bound with the double-diluted antibody solution at 1500 rpm for 10 minutes; and finally dissociated at 1500 rpm for 10 minutes. The obtained results would be analyzed by Octet Data Analysis 9.0 software (Pall ForteBio Analytics Co., Ltd.) to give the KD, Kₒₙ (1/Ms) and Koff (1/s).

The target of assay [2] is T2, recombinant mouse PD-L1-Fc protein (M5251, ACROBiosystems Inc.) (mouse, UniProt Q9EP73 19-238).
T2 construct: Bought; Labeled with biotin for the BLI assays; unlabeled in the phage ELISA; also called Mouse PD-L1-Fc-Biotin; not shown: Fc part
T2 sequence (Q9EP73 19-238 limits assumed): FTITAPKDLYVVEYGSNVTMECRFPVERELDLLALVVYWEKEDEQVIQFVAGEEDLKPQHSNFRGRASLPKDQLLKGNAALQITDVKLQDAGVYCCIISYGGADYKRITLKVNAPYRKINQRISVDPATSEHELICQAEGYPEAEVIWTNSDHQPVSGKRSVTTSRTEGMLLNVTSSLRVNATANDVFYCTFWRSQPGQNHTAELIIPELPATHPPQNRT
The description is as above. The method, then:
as §1

For assay [3], the target named is T3, recombinant Macaca fascicularis PD-L1-Fc (90251-CO2H, Sino Biological Inc.) (Macaca fascicularis, UniProt G7PSE7 19-239).
T3 construct: Bought; also called Macaca Fascicularis PD-L1-Fc-Biotin; not shown: Fc part
T3 sequence (G7PSE7 entry or part of it): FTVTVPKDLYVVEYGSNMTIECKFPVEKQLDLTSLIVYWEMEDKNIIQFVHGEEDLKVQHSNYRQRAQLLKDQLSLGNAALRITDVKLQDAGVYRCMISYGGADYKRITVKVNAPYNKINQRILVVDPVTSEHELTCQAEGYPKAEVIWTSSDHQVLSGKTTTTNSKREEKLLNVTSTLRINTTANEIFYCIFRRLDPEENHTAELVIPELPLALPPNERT
The description is as above. The method, then:
as §1

For assay [4], the target named is T4, recombinant dog PD-L1-Fc (70110-DO2H, Sino Biological Inc.) (dog, UniProt E2RKZ5 19-236, Biotinylated on lysines/amines (EZ-Link Sulfo-NHS-LC-Biotin); positions not defined).
T4 construct: Bought; also called Dog PD-L1-Fc-Biotin; canine PD-L1; not shown: Fc part and any linker of the bought fusion (Sino Biological 70110-DO2H)
T4 sequence: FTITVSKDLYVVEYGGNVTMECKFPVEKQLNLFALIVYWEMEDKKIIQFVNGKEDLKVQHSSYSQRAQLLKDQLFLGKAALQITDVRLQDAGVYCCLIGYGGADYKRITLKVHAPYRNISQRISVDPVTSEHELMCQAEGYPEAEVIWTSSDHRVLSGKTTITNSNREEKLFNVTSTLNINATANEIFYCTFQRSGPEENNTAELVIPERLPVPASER
Described as above. The method, then: as §1

For assay [5], the target named is T5, human PD-L1 on cells (CHO cells that stably expressed human PD-L1; MDA-MB-231 cells) (human, UniProt Q9NZQ7 19-290).
T5 construct: whole, on cells; Stably expressed on CHO cells; also called CHO cells expressing human PD-L1
T5 sequence (Q9NZQ7 19-290): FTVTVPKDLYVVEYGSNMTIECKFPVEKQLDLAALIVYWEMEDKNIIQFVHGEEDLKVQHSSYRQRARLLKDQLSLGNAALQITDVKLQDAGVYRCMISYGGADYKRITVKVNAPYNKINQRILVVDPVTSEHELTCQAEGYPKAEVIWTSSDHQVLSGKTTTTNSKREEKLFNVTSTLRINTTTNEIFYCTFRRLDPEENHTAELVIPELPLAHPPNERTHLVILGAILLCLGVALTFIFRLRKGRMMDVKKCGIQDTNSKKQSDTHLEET
The assay can be described thus: flow cytometry competition: biotin-labelled human PD-1-Fc at a subsaturated concentration on CHO cells stably expressing human PD-L1, antibody titrated, streptavidin R-PE detection. The method, then: (§2) After cell washing, Streptavidin R-PE Conjugate (life technology, SA10041) was added and incubated (4° C., 30 min). After cell washing, the fluorescence intensity was detected by a flow cytometer (Intellicyt iQue Screener).

For assay [6], the target named is T6, mouse PD-L1 on CHO cells that stably expressed mouse PD-L1 (mouse, UniProt Q9EP73 19-290).
T6 construct: whole, on cells; also called CHO cells expressing mouse PD-L1
T6 sequence (Q9EP73 19-290): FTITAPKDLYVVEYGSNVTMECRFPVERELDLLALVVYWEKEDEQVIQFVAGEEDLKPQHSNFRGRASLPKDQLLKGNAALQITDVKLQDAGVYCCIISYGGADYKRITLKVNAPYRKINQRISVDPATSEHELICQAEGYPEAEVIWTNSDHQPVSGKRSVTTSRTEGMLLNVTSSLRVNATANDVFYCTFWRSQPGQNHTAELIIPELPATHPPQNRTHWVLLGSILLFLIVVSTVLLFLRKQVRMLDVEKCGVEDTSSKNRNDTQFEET
Description: flow cytometry competition: biotin-labelled mouse PD-1-Fc at a subsaturated concentration on CHO cells stably expressing mouse PD-L1, antibody titrated, streptavidin R-PE detection. Here is the method: After cell washing, Streptavidin R-PE Conjugate (life technology, SA10041) was added and incubated (4° C., 30 min). After cell washing, the fluorescence intensity was detected by flow cytometer (Intellicyt iQue Screener).

Assay [7] has as its target T7, recombinant human PD-L1-His protein (Origincell Therapeutics Co., Ltd.) (human, UniProt Q9NZQ7 19-238, limits assumed).
T7 construct: not shown: His tag
Description: BLI (Octet RED384), antibody on AHC sensor, PD-L1-His in solution.

For assay [8], the target named is T5, human PD-L1 on cells (CHO cells that …). The assay can be described thus: flow cytometry on MDA-MB-231 cells (human PD-L1), anti-human IgG-Fc DyLight 650 detection. Here is the method: Human breast cell strain MDA-MB-231 (Shanghai Chinese Academy of Sciences Cell Library) highly expresses the human PD-L1 molecule. […] After cell washing, Goat F(ab′)₂ Anti-Human IgG-Fc (DyLight 650) (ab98593, abcam) was added and incubated at 4° C. for 30 min. After cell washing, the fluorescence intensity was detected by a flow cytometer (Intellicyt iQue Screener).

The target is the same in assay [9]. The assay can be described thus: flow cytometry on CHO cells stably expressing human PD-L1, anti-human IgG-Fc DyLight 650 detection. The method, then:
The mixture was mixed well and incubated at 4° C. for 1 hr. After cell washing, Goat F(ab)₂ Anti-Human IgG-Fc (DyLight 650) (ab98593, Abcam) was added and incubated at 4° C. for 30 min. After cell washing, the fluorescence intensity was detected by a flow cytometer (Intellicyt iQue Screener).

In assay [10] the target is T6, mouse PD-L1 on CHO cells that stably …. The assay can be described thus: flow cytometry on CHO cells stably expressing mouse PD-L1, anti-human IgG-Fc DyLight 650 detection. Here is the method: The mixture was mixed well and incubated at 4° C. for 1 hr. After cell washing, Goat F(ab′)₂ Anti-Human IgG-Fc (DyLight 650) (ab98593) was added and incubated at 4° C. for 30 min. After cell washing, the fluorescence intensity was detected by a flow cytometer (Intellicyt iQue Screener).

Assay [11] has as its target T5, human PD-L1 on cells (CHO cells that …). Description: flow cytometry on CHO cells stably expressing human PD-L1, anti-human IgG-Fc DyLight 650 detection. Here is the method: After cell washing, Goat F(ab′)₂ Anti-Human IgG-Fc (DyLight 650) (ab98593, abcam) was added and incubated at 4° C. for 30 min. After cell washing, the fluorescence intensity was detected by a flow cytometer (Intellicyt iQue Screener).
This is another data set of the same source.

For assay [12], the target named is T6, mouse PD-L1 on CHO cells that stably …. Description: flow cytometry competition: biotin-labelled mouse PD-1-Fc at a subsaturated concentration on CHO cells stably expressing mouse PD-L1, antibody titrated, streptavidin R-PE detection. Here is the method:
as §2
This is another data set of the same source.

Assay [13] deals with T5, human PD-L1 on cells (CHO cells that …). The assay can be described thus: flow cytometry competition: biotin-labelled human PD-1-Fc at a subsaturated concentration on CHO cells stably expressing human PD-L1, antibody titrated, streptavidin R-PE detection. Here is the method: as §2
The source holds these as a separate data set.

In assay [14] the target is T6, mouse PD-L1 on CHO cells that stably …. The assay can be described thus: flow cytometry competition: biotin-labelled mouse PD-1-Fc at a subsaturated concentration on CHO cells stably expressing mouse PD-L1, antibody titrated, streptavidin R-PE detection. Here is the method: as §2
The source holds these as a separate data set.

Residue numbers refer to the chain shown, from its start. Where two headings read alike, the source gives them in different places.

T7 sequence (Q9NZQ7 19-238 limits assumed): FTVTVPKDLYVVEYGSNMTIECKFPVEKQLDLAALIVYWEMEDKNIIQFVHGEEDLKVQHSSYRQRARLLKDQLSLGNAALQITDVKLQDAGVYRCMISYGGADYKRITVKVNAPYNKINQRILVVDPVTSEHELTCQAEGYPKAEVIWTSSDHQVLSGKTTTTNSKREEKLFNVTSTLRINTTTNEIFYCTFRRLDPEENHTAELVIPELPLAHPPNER
T1 sequence (Q9NZQ7 19-238 limits assumed): as above

B1: anti-PD-L1 fully human antibody YN-002 (antibody, human IgG1, lambda, V domains shown)
VH: QVQLVQSGAEVRKPGSSVKVSCKASGGTFSSYAISWVRQAPGQGLEWMGRIIPILGIANYAQKFQGRVTITADKSTSTAYMELSSLRSEDTAVYYCARTMDGYSYGNFDYWGQGTLVTVSS
VL: QSALTQPASVSGSPGQSITISCTGTSSDVGGYNYVSWYQQHPGKAPKLLIYGNSNRPSGVPDRFSGSKSGTSASLAITGLQAEDEADYYCQSYDSSLSGSVFGGGTKLTVLG
notes: Intact IgG1,lambda antibody of phage antibody 1B10, expressed in 293F cells
For the molecule B1, the Kd in assay [1] amounted to 0.888 nM; in [2] it was 1.72 nM; in [3] it was 1.07 nM; in assay [4], 0.743 nM. Besides, the off-rate constant (koff) turned out to be 0.000594 s⁻¹ in assay [1], 0.00168 s⁻¹ in assay [2], 0.0019 s⁻¹ in assay [3] and 0.000759 s⁻¹ in assay [4]. Further, the association rate constant (kon) in [1] was 669000 M⁻¹ s⁻¹; in assay [2], 977000 M⁻¹ s⁻¹; in assay [3], 1.77e+06 M⁻¹ s⁻¹; in [4], 1.02e+06 M⁻¹ s⁻¹. Further, the “IC50 (read off the curve)” value in assay [5] is approximately 1 µg/mL; in [6], approximately 0.1 µg/mL.

B2: PD-L1 antibody YN-036 (antibody, human IgG1, lambda, V domains shown)
VH: B1 VH with R12K, G26R, T28P, S31T, D101G, G102E, F108Y
VL: QSALTQPASVSGSPGQSITISCTGTVSEVGGYNEVSWYQQHPGKAPKLMIYGNSNRPSGVSNRFSGSKSGNTASLTISGLQAEDEADYYCQSYDSSLSGTVFGGGTKLTVLG
notes: full-length IgG1,lambda
Consider B2, for which the Kd in [7] stood at 0.474 nM. Further, the koff in [7] was determined as 0.000175 s⁻¹. The kon in [7] was 369000 M⁻¹ s⁻¹. For the same molecule, the “EC50 (read off the curve)” value was approximately 1 nM in [8], 3 to 4 nM in assay [9], approximately 4 nM in [10] and approximately 4 nM in assay [11]. In addition, the “IC50 (read off the curve)” value in assay [5] was approximately 3 nM; in assay [12] it was approximately 2 nM; in [13], approximately 2 nM; in assay [14], approximately 5 nM.

B3: anti-PD-L1 fully human antibody YN-003 (antibody, human IgG1, lambda, V domains shown)
VH: B1 VH with R12K
VL: B2 VL with V26S, E28D, E34Y, T100S
notes: Germline version of YN-002; IgG1,lambda
As to B3, the dissociation constant Kd is 0.408 nM in assay [1], 0.996 nM in assay [2], 0.654 nM in assay [3] and 0.594 nM in assay [4]. Moreover, the koff amounted to 0.000611 s⁻¹ in assay [1], 0.000997 s⁻¹ in assay [2], 0.00136 s⁻¹ in [3] and 0.000514 s⁻¹ in assay [4]. For the same molecule, the kon in assay [1] stood at 1.5e+06 M⁻¹ s⁻¹; in assay [2] it was 1.03e+06 M⁻¹ s⁻¹; in assay [3], 2.08e+06 M⁻¹ s⁻¹; in [4] it was 864000 M⁻¹ s⁻¹. Further, the “IC50 (read off the curve)” value in assay [5] was approximately 0.2 µg/mL; in [6] it was approximately 0.06 µg/mL.

B4: PD-L1 antibody YN-035 (antibody, human IgG1, lambda, V domains shown)
VH: B1 VH with R12K, G26R, T28P, S31T, D101E, S104G, Y105F
VL: B2 VL
notes: full-length IgG1,lambda
For the molecule B4, the Kd in assay [7] stood at 0.452 nM. Besides, the off-rate constant (koff) in assay [7] was 0.000193 s⁻¹. Moreover, in assay [7], the kon is 427000 M⁻¹ s⁻¹. Also, the “EC50 (read off the curve)” value is approximately 0.9 nM in assay [8], 3 to 4 nM in assay [9], approximately 6 nM in [10] and approximately 4 nM in [11]. For the same molecule, the “IC50 (read off the curve)” value in [5] was approximately 3 nM; in [12], approximately 3 nM; in assay [13], approximately 2 nM; in [14], approximately 5 nM.
